Measurements taken from US20230192818A1.
Where “and” joins values, the source holds several entries; their conditions need not be identical. Equal entries are not always repeated.

Experiments:
FCGR1 = FCGR1 (UniProt P12314)
FCGR 2a (H 167) = FCGR 2a (H 167) (UniProt P12318)
FCGR 2b/c = FCGR 2b/c (UniProt P31994)
FCGR 3a (F 176) = FCGR 3a (F 176) (UniProt P08637)
FCGR 3a (V 176) = FCGR 3a (V 176) (UniProt P08637)
FcRn = FcRn (UniProt P55899)

Sequence of FCGR 3a (F 176) (P08637 17-208 limits assumed): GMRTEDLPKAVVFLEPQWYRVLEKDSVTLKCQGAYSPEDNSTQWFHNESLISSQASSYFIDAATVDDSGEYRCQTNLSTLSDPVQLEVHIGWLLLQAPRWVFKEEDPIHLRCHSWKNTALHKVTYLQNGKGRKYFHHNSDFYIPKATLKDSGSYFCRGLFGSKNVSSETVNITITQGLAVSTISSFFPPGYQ
Sequence of FCGR 3a (V 176) (P08637 17-208 F176V limits assumed): as the sequence (P08637 17-208 limits assumed) above, with F160V counted along it
Sequence of FCGR1 (P12314 16-288 limits assumed): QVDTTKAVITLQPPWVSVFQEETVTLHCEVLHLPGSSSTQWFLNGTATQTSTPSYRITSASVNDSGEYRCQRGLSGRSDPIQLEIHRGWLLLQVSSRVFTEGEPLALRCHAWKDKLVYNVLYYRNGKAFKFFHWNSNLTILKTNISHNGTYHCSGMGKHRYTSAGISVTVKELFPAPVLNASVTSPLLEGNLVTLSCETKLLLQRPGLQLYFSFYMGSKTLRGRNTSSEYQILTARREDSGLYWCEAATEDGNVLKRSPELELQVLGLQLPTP
Sequence of FCGR 2b/c (P31994 46-217 limits assumed): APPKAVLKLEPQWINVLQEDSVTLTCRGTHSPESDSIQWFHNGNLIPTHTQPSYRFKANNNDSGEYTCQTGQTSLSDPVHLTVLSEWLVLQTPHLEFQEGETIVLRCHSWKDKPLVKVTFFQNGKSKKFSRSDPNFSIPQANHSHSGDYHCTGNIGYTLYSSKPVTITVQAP

Kd (FCGR1): 0.46 nM
koff (FCGR1): 0.000245 s⁻¹
Kd (FCGR 2a (H 167)): 462 nM and 537 nM
Kd (FCGR 2b/c): 1360 nM and 1590 nM
Kd (FCGR 3a (F 176)): 1110 nM and 796 nM
Kd (FCGR 3a (V 176)): 161 nM and 210 nM
Kd (FcRn): 81.1 nM and 86.5 nM
Substance: human IgG1 isotype control (antibody)
